Reference: PMC4070327

Target: TF^SBD-PPD (substrate-binding domain plus peptidyl prolyl isomerase domain of E. coli TF) (E. coli) (UniProt P0A850)
Experiment: NMR relaxation dispersion

PhoA^d-e (PhoA fragment with TF-binding sites d and e), sequence (P00634 220-310): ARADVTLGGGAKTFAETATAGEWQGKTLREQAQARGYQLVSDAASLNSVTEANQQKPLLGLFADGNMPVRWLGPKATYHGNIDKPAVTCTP

Substance	koff [s⁻¹]	residence time (1/koff) [ms]
PhoA^a-c (PhoA fragment with TF-binding sites a to c) (from UniProt P00634 1-150) (domain or fragment)	50	20
PhoA^d-e (PhoA fragment with TF-binding sites d and e) (from UniProt P00634 220-310) (domain or fragment)		20
